Experiments:
MutS [1] = target: T1, MutS (Escherichia coli, UniProt P23909 P23909:1-853); assay: immobilized MutS; settings: tags: immobilized on nitrocellulose, PVDF, nylon or magnetic beads, label: biotin
T1 sequence: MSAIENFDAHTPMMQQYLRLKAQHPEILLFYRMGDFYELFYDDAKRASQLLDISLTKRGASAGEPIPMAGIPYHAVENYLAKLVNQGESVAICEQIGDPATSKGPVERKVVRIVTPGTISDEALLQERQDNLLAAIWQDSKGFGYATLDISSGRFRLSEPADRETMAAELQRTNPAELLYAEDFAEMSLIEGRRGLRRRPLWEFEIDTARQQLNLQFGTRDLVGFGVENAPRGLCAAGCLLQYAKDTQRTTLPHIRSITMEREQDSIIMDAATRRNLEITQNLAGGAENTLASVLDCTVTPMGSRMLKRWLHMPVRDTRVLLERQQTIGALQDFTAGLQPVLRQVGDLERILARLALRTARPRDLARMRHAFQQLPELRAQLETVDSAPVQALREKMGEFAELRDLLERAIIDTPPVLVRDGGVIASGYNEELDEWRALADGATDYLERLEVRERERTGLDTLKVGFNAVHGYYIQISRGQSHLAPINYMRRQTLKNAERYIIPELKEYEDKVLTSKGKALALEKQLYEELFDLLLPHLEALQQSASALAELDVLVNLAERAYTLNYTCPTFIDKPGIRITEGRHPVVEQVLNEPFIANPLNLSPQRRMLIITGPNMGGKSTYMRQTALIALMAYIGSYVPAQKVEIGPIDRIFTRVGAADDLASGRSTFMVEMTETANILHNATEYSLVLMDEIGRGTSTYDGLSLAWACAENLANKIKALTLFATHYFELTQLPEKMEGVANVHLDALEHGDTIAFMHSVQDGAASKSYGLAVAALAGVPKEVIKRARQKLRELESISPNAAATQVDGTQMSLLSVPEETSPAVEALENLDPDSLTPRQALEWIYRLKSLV
Experimental: (§1) Immobilization of MutS on Solid Supports and Biotin Detection Assay (a) Nitrocellulose A nitrocellulose sheet (0.45 μm, Schleicher and Schull, BA85) was pre-wet by floating in reaction buffer (20 mM Tris HCl, pH 7.6; 5 mM MgCl_2, 0.1 mM DTT, 0.01 mM EDTA). MutS (500 ng/well) in reaction buffer was bound to the nitrocellulose in a 48 well slot blotting apparatus (Hoefer Scientific Instruments) over 3 sheets of blotting paper (Schleicher and Schull GB002). Reaction buffer alone was added to "no MutS" wells. After 20 min. at room temperature, nitrocellulose was blocked with 200 μl/well of 3% horse radish peroxidase (HRP)-free bovine serum albumin (BSA). After 1 hour, excess blocking solution was pulled through with vacuum and DNA (1 ng and 10 ng) was added in 20 μl reaction buffer containing 3% BSA. After 30 min. at room temperature, wells were washed 5 times with 100 μl reaction buffer. The wash fluids were decanted rather than pulled through with vacuum.
DNA was prepared as described in the Examples above. 500 ng *E. coli* MutS was bound to nitrocellulose as described above and the experiment carried out as in the previous Examples. Self-annealed single stranded triplet repeat sequences of CGG and CTG formed double-stranded mismatch-containing DNA duplexes which were recognized by immobilized MutS.

MutS [2] = target: T1, MutS; assay: immobilized MutS; settings: tags: immobilized on nitrocellulose, PVDF, nylon or magnetic beads, label: 5' biotin on first strand
Experimental: as §1
(§2) The presence of biotin-labeled DNA bound on the nitrocellulose sheet was detected by visualizing the binding of streptavidin to biotin. 100 μl streptavidin-conjugated HRP (0.05 μg/ml in reaction buffer+BSA) was added to each well. After 20 min. at room temperature, any remaining solution was decanted and the wells washed 5 times with 100 μl reaction buffer as above.

MutS [3] = target: T1, MutS; assay: immobilized MutS, 1-10 ng; detected equally to G//T; settings: tags: immobilized on nitrocellulose, PVDF, nylon or magnetic beads; label: 5' biotin on first strand; T//G mismatch
Experimental: as §1, §2

MutS [4] = target: T1, MutS; assay: immobilized MutS; strong signal; settings: tags: immobilized on nitrocellulose, PVDF, nylon or magnetic beads; label: 5' biotin on first strand; G//G mismatch
Experimental: as §1, §2

MutS [5] = target: T1, MutS; assay: immobilized MutS; C//T less well detected than T//C; settings: tags: immobilized on nitrocellulose, PVDF, nylon or magnetic beads; label: 5' biotin on first strand; C//T mismatch
Experimental: as §1, §2

MutS [6] = target: T1, MutS; assay: filter; soluble MutS, 1 or 10 ng DNA; 1.8-fold at 0.1 ng; settings: tags: immobilized on nitrocellulose, PVDF, nylon or magnetic beads; label: 5' biotin on first strand; G//T mismatch
Experimental: The binding of ^32P-labeled heteroduplexes to MutS in solution was tested in a standard filter binding assay essentially as described by Jiricny, J. et al., Nucl. Acids Res. 16:7843–7853 (1988). The oligonucleotides were labeled as above and annealed with a 10-fold excess of unlabeled "complementary" oligonucleotides to yield a homoduplex and a heteroduplex containing a single G//T mismatch. For this assay, 500 ng of MutS in reaction buffer (20 µl) was incubated for 30 minutes at room temperature with the two types of duplexes. The mixture was spotted onto pre-wet nitrocellulose filters, which were then washed 5 times with 2 ml reaction buffer by vacuum filtration and dried at 80° C. for 15 minutes. Each filter was placed in 3 ml scintillation fluid and the radioactivity determined by scintillation counting. Background cpm (no MutS) were subtracted from the cpm bound by MutS. Means of duplicate or triplicate determinations are shown below.

[7] = self-annealed duplex with mismatches

## CGGCGGCGGCGGCGGCGGCGGCGGCGGCGG (structured_DNA) [(CGG)10]
MutS [1]; [7]
  binding result: binds

B1: G//A mismatch 30mer (dsDNA)
DNA 1: GCACCTGACTCCTGGGGAGAAGTCTGCCGT
DNA 2: ACGGCAGACTTCTCCACAGGAGTCAGGTGC
MutS [2]; G//A mismatch
  binding result: binds

## CTGCTGCTGCTGCTGCTGCTGCTGCTGCTG (structured_DNA) [(CTG)10]
MutS [1]; [7]
  binding result: binds

B2: A//G mismatch 30mer (dsDNA)
DNA 1: GCACCTGACTCCTGAGGAGAAGTCTGCCGT
DNA 2: ACGGCAGACTTCTCCGCAGGAGTCAGGTGC
MutS [2]; A//G mismatch
  binding result: binds

B3: T//G mismatch 30mer (dsDNA)
DNA 1: GCACCTGACTCCTGTGGAGAAGTCTGCCGT
DNA 2: ACGGCAGACTTCTCCGCAGGAGTCAGGTGC
MutS [3]
  binding result: binds

B4: A//C mismatch 30mer (dsDNA)
DNA 1: GCACCTGACTCCTGAGGAGAAGTCTGCCGT
DNA 2: ACGGCAGACTTCTCCCCAGGAGTCAGGTGC
MutS [2]; A//C mismatch
  binding result: binds

## CAGCAGCAGCAGCAGCAGCAGCAGCAGCAG (ssDNA) [(CAG)10]
MutS [1]
  binding result: no binding

## CCGCCGCCGCCGCCGCCGCCGCCGCCGCCG (ssDNA) [(CCG)10]
MutS [1]
  binding result: no binding

B5: G//G mismatch 30mer (dsDNA)
DNA 1: GCACCTGACTCCTGGGGAGAAGTCTGCCGT
DNA 2: ACGGCAGACTTCTCCGCAGGAGTCAGGTGC
MutS [4]
  binding result: binds

B6: C//T mismatch 30mer (dsDNA)
DNA 1: GCACCTGACTCCTGCGGAGAAGTCTGCCGT
DNA 2: ACGGCAGACTTCTCCTCAGGAGTCAGGTGC
MutS [5]
  binding result: binds

B7: T//T mismatch 30mer (dsDNA)
DNA 1: GCACCTGACTCCTGTGGAGAAGTCTGCCGT
DNA 2: ACGGCAGACTTCTCCTCAGGAGTCAGGTGC
MutS [2]; T//T mismatch
  binding result: binds

B8: A//A mismatch 30mer (dsDNA)
DNA 1: GCACCTGACTCCTGAGGAGAAGTCTGCCGT
DNA 2: ACGGCAGACTTCTCCACAGGAGTCAGGTGC
MutS [2]; A//A mismatch
  binding result: binds

B9: G//T mismatch 30mer (dsDNA)
DNA 1: GCACCTGACTCCTGGGGAGAAGTCTGCCGT
DNA 2: ACGGCAGACTTCTCCTCAGGAGTCAGGTGC
MutS [6]
  binding signal: 5.2 fold over G:C homoduplex

Source: patent US6120992, “Use of immobilized mismatch binding protein for detection of mutations and polymorphisms, and allele identification in a diseased human” (ValiGene Corporation)
